Where no end group is shown, it is not given here. [ ]: non-standard residue; d: D form. sY = N[C@@H](Cc1ccc(OS(=O)(=O)O)cc1)C(=O)O
How the values were obtained:
[1] = target: T1, BNGR-A9 expressed in BmN cells (pIZT-BNGR-A9) (Bombyx mori) (UniProt B3XXM2)
T1 sequence: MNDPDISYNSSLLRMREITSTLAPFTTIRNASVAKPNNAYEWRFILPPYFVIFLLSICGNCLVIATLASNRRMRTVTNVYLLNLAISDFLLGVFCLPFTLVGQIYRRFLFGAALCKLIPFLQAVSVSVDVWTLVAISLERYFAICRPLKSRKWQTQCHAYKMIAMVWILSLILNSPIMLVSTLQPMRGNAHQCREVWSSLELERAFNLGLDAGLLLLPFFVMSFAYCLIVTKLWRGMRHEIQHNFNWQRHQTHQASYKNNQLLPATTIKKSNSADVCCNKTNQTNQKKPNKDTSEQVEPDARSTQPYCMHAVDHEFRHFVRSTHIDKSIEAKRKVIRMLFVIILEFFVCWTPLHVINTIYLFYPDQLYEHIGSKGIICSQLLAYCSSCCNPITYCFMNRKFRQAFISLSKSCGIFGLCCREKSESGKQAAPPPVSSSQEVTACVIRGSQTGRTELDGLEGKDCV

[2] = target: T2, Flag-BNGR-A9 (Bombyx mori neuropeptide G protein-coupled receptor A9) expressed in HEK293 cells (Bombyx mori) (UniProt B3XXM2)
T2 sequence: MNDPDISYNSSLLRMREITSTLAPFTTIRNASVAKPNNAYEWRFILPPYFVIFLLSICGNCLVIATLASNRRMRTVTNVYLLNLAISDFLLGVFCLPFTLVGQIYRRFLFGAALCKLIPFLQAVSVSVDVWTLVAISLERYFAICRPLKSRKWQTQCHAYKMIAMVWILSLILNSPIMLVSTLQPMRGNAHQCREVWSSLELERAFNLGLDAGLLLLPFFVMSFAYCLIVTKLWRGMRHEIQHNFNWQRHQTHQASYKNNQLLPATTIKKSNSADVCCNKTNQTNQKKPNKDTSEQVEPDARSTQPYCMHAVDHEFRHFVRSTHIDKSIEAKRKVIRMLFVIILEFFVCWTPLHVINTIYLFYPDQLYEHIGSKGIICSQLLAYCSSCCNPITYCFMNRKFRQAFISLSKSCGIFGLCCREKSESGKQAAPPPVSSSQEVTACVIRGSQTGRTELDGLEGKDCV

[3] = target: T1, BNGR-A9 expressed in BmN cells (pIZT-BNGR-A9) (Bombyx mori); remark: listed apart in the source
[4] = target: T2, Flag-BNGR-A9 (Bombyx mori neuropeptide G protein-coupled receptor A9) expressed in HEK293 cells (Bombyx mori); remark: listed apart in the source

CRE-driven luciferase reporter, dose-response, BmN cells stably expressing BNGR-A9 [1]: 60 nM
CRE-driven luciferase reporter, dose-response, HEK293 cells stably expressing BNGR-A9 [2]: 73.3 nM
Fura-2 AM Ca2+ mobilization, dose-response, BmN cells expressing BNGR-A9 [3]: 51.4 nM
Fura-2 AM Ca2+ mobilization, dose-response 1 nM to 1 uM, HEK293 cells stably expressing BNGR-A9 [4]: 29 nM
B1: Bombyx mori sulfated-sulfakinin (peptide)
peptide: GDDTFDD[sY]GHLRF-NH2
modifications: N-terminus assumed
SMILES: CC(C)C[C@H](NC(=O)[C@H](Cc1c[nH]cn1)NC(=O)CNC(=O)[C@H](Cc1ccc(OS(=O)(=O)O)cc1)NC(=O)[C@H](CC(=O)O)NC(=O)[C@H](CC(=O)O)NC(=O)[C@H](Cc1ccccc1)NC(=O)[C@@H](NC(=O)[C@H](CC(=O)O)NC(=O)[C@H](CC(=O)O)NC(=O)CN)[C@@H](C)O)C(=O)N[C@@H](CCCNC(=N)N)C(=O)N[C@@H](Cc1ccccc1)C(N)=O

Source: PMC11190223, “Identification of sulfakinin receptor regulating feeding behavior and hemolymph trehalose homeostasis in the silkworm, Bombyx mori” (Scientific Reports, 2024)
